According to article PMC5045424, “The La protein counteracts cisplatin-induced cell death by stimulating protein synthesis of anti-apoptotic factor Bcl2”:

Assays:
[1] = target: T1, La (LARP3, La/SSB), recombinant His-tagged wildtype (human, UniProt P05455 1-408); test: fluorescence polarization; 25 nM RNA; EMSA and FP: 25 nM FAM-RNA, 0-600 nM La; competition FP: 200 nM La; buffer, salt, pH and temperature not given (cited to ref 21); conditions: protein: recombinant; tags: His; label: 5' 6-FAM; stem-loop embedding the AUG (mfold)
T1 sequence: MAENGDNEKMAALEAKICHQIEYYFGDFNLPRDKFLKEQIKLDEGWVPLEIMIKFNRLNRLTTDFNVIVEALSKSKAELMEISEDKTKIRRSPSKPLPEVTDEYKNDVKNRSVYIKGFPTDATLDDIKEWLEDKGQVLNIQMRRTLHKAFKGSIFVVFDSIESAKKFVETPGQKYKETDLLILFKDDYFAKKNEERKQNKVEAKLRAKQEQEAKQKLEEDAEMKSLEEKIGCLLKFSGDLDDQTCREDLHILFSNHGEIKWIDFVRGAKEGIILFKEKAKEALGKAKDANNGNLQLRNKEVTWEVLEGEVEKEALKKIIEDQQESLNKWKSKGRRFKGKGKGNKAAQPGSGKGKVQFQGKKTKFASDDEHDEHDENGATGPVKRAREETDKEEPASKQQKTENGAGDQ

[2] = target: T1, La (LARP3, La/SSB), recombinant …; test: EMSA; 25 nM RNA, 0-600 nM La; EMSA and FP: 25 nM FAM-RNA, 0-600 nM La; competition FP: 200 nM La; buffer, salt, pH and temperature not given (cited to ref 21); conditions: protein: recombinant; tags: His; label: 5' 6-FAM; stem-loop embedding the AUG (mfold)

CCCGUUGCUUUUCCUCUGGGAAGGAUGGCGCACGCUGGG (structured_RNA) [Bcl2_WT RNA oligonucleotide, FAM-labeled (-24 to +15)]
Kd [1]: 60.1 ± 4.5 nM | Kd [2]: 50.5 ± 5.9 nM
